From patent US7067277B1, “Chimeric G proteins and uses thereof” (H. Lundbeck A/S, priority 1999, dated 2006)
Where a chain is given by its changes, count along the chain named.

T1: h GALR1 (Homo sapiens, UniProt P47211)
T1 construct: expressed in transfected cells; host or cells: COS-7
T1 sequence (P47211 1-349): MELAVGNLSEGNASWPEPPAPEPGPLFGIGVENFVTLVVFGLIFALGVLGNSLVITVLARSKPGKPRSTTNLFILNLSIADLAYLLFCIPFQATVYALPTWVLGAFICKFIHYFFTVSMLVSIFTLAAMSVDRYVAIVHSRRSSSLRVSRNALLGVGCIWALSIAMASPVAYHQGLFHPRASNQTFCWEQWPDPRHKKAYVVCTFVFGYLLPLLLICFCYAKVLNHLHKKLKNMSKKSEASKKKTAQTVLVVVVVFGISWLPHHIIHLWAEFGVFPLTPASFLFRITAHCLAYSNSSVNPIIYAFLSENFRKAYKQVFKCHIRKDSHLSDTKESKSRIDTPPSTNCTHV

T2: h GALR3 (Homo sapiens, UniProt O60755)
T2 sequence (O60755 1-368): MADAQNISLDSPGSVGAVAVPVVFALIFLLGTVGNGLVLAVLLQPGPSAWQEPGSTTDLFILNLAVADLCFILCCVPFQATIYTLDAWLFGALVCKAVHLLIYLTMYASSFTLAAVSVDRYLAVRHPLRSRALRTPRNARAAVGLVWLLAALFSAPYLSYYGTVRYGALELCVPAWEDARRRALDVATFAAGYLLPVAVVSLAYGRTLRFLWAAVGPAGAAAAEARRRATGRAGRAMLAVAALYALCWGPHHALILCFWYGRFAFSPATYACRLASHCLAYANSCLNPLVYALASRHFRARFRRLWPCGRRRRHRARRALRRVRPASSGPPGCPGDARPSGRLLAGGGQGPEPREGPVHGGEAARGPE

T3: h α2C adr (Homo sapiens, UniProt P18825)
T3 construct: expressed in transfected cells; host or cells: COS-7
T3 sequence (P18825 1-462): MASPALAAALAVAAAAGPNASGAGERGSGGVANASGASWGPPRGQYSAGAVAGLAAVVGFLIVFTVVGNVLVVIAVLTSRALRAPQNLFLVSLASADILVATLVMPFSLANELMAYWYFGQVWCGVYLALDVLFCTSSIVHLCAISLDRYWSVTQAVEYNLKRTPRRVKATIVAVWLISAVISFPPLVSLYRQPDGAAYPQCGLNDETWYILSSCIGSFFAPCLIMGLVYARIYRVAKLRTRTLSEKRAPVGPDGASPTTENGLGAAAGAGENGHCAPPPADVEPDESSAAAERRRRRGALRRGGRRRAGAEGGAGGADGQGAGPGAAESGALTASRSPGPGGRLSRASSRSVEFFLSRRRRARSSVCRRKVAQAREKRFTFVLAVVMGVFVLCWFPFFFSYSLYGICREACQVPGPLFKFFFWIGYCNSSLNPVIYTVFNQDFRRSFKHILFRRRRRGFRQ

B1: cGαq/z5: chimeric Gα subunit: C-terminal final 5 amino acids of C. elegans Gαq replaced with those of hGαz (SEQ ID NO: 1) (protein)
chain: MACCLSEEAREQKRINQEIEKQLQRDKRNARRELKLLLLGTGESGKSTFIKQMRIIHGQGYSEEDKRAHIRLVYQNVFMAIQSMIRAMDTLDIKFGNESEELQEKAAVVREVDFESVTSFEEPYVSYIKELWEDSGIQECYDRRREYQLTDSAKYYLSDLRRLAVPDYLPTEQDILRVRVPTTGIIEYPFDLEQIIFRMVDVGGQRSERRKWIHCFENVTSIMFLVALSEYDQVLVECDNENRMEESKALFRTIITYPWFTNSSVILFLNKKDLLEEKILYSHLADYFPEYDGPPRDPIAAREFILKMFVDLNPDADKIIYSHFTCATDTENIRFVFAAVKDTILQHNLKYIGLC
modifications: C. elegans
B2: cGαq/z9: C. elegans Gαq with Gαz portion of the C-terminal tail extended to 9 amino acids (SEQ ID NO: 2) (protein)
chain: B1 chain with H347N
modifications: C. elegans

What was measured:
Test in all cases: Calcium mobilization (FLIPR, Fluo-3) in transfected COS-7 cells
Format in all cases: cell-based
h NPFF1 = molecular target: T4, h NPFF1 (Homo sapiens, UniProt Q9GZQ6); conditions: h NPFF1 + chimera in COS-7; agonist NPFF, max 10 μM
T4 construct: expressed in transfected cells; host or cells: COS-7
T4 sequence (Q9GZQ6 whole entry): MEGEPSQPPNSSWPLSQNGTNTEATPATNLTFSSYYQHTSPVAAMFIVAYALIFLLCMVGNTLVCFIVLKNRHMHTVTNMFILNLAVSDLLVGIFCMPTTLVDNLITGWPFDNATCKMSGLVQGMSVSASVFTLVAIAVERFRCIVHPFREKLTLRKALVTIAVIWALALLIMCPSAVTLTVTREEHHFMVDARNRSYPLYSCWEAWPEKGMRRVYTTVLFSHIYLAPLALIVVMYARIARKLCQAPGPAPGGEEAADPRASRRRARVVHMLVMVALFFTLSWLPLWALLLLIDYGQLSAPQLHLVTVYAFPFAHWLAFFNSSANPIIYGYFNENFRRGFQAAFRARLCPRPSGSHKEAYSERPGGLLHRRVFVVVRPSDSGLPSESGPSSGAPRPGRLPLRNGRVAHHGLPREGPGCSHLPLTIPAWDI
Experimental: (§1) COS-7 cells were cultured in 225 cm^2 flasks in Dulbecco's Modified Eagle Medium (DMEM) with supplements (10% bovine calf serum, 4 mM glutamine, 100 units/ml penicillin and 100 μg/ml streptomycin) at 37° C., 5% CO2. Stock plates of COS-7 cells were trypsinized and split 1:6 every 3–4 days.
(§2) GPCR and chimeric G protein cDNAs were transiently transfected into COS-7 cells in 150 cm^2 flasks by the DEAE-dextran method (Cullen, 1987), using a total of 20 μg of DNA/˜7×10^6 cells. For evaluating the function of a single chimeric G protein, the standard cDNA transfection ratio was 1:1 (10 μg GPCR cDNA and 10 μg chimeric G protein cDNA). For evaluating the function of a mixture of chimeric G proteins, the standard cDNA transfection ratio was 8:1:1 (16 μg GPCR cDNA, 2 μg Gαq/z cDNA, 2 μg Gαq/s cDNA).
(§3) Twenty four hours after transient transfection, COS-7 cells were seeded into 96-well black wall microtiter plates coated with poly-D-lysine for assay the following day. Just prior to assay, culture medium was aspirated and cells were dye-loaded with 4 μM Fluo-3/0.01% pluronic acid in assay buffer composed of Hank's Balanced Salt Solution (138 mM NaCl, 5 mM KCl, 1.3 mM CaCl2, 0.5 mM MgCl2, 0.4 mM MgSO4, 0.3 mM KH2PO4, 0.3 mM Na2HPO4, 5.6 mM glucose) plus 20 mM HEPES (pH 7.4), 0.1% BSA and 2.5 mM probenicid (100 μl/well) for 1 hour in 5% CO2 at 37° C. After excess dye was discarded, cells were washed in assay buffer and layered with a final volume equal to 100 μl/well. Basal fluorescence was monitored in a fluorometric imaging plate reader (FLIPR™, Molecular Devices) with an excitation wavelength of 488 nm and an emission range of 500 to 560 nm. Laser excitation energy was adjusted so that basal fluorescence readings were approximately 10,000 relative fluorescent units. Cells were stimulated with agonists diluted in assay buffer (50 μl), and relative fluorescent units were measured at defined intervals (exposure=0.4 sec) over a 3 min period at room temperature. Maximum change in fluorescence was calculated for each well. Concentration-response curves derived from the maximum change in fluorescence were analyzed by nonlinear regression (Hill equation).

h 5HT4 = h 5HT4 (Homo sapiens, UniProt Q13639); conditions: h 5HT4 + chimera in COS-7; agonist 5HT, max 100 μM
Sequence of h 5HT4 (Q13639 whole entry): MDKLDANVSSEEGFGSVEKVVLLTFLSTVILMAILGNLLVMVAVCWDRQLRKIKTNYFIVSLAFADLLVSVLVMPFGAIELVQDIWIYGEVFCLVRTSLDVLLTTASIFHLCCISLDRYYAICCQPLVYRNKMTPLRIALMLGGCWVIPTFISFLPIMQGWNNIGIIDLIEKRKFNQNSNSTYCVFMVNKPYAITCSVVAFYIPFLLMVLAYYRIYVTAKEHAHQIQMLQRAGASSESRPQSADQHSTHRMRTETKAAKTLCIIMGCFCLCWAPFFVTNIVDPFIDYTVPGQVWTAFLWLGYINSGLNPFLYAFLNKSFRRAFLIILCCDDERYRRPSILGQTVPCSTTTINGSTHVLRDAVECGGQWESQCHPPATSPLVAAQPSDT
Experimental: as §1, §2, §3

h kappa = molecular target: T5, h kappa (Homo sapiens, UniProt P41145); conditions: h kappa + chimera in COS-7; agonist U-69593, max 100 μM
T5 construct: expressed in transfected cells; host or cells: COS-7
T5 sequence (P41145 whole entry): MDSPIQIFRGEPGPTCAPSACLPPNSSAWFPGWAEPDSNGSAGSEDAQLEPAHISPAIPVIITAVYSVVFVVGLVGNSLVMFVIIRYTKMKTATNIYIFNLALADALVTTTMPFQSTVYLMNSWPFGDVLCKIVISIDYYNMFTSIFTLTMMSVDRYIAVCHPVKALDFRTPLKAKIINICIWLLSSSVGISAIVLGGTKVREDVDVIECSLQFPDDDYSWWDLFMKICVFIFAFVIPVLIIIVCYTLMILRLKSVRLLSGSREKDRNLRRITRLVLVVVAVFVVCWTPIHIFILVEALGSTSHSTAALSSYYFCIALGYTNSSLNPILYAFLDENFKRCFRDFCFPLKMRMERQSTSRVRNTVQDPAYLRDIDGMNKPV
Experimental: as §1, §2, §3

h 5HT6 = h 5HT6 (Homo sapiens, UniProt P50406); conditions: h 5HT6 + chimera in COS-7; agonist 5HT, max 100 μM
Sequence of h 5HT6 (P50406 whole entry): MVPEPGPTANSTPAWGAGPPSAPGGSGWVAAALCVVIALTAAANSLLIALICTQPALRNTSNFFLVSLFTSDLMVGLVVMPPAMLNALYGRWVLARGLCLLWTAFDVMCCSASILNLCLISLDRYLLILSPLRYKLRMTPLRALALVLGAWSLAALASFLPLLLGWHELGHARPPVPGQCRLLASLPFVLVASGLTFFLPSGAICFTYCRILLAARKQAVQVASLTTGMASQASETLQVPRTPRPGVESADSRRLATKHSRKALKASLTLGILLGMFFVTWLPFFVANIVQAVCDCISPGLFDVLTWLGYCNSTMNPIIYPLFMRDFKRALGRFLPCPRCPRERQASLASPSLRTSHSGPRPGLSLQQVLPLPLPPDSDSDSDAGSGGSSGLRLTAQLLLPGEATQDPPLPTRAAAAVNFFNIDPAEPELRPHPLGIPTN
Experimental: as §1, §2, §3

h GALR1 = molecular target: T1, h GALR1; conditions: h GALR1 + chimera in COS-7; agonist GAL, max 10 μM
Experimental: as §1, §2, §3

h GALR3 = molecular target: T2, h GALR3; conditions: h GALR3 + chimera in COS-7; agonist GAL, max 10 μM
Experimental: as §1, §2, §3

h α2C adr = molecular target: T3, h α2C adr; conditions: h α2C adr + chimera in COS-7; agonist NE, max 100 μM
Experimental: as §1, §2, §3

h 5HT7 = h 5HT7 (Homo sapiens, UniProt P34969); conditions: h 5HT7 + chimera in COS-7; agonist 5HT, max 100 μM
Sequence of h 5HT7 (P34969 whole entry): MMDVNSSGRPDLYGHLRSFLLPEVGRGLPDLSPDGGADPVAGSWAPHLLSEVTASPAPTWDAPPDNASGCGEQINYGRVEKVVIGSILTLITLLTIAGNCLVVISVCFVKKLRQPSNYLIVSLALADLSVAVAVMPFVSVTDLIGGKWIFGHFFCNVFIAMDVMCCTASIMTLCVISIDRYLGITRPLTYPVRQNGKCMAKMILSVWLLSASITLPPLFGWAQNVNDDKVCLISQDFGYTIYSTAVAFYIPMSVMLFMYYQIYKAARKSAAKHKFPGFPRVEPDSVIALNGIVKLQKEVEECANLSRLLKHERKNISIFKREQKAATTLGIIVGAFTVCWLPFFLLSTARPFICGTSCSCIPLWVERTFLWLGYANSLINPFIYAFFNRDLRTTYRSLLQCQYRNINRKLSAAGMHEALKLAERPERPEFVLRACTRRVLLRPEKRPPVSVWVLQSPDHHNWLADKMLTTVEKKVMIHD
Experimental: as §1, §2, §3

h Y4 = molecular target: T6, h Y4 (Homo sapiens, UniProt P50391); conditions: h Y4 + chimera in COS-7; agonist PP, max 10 μM
T6 construct: expressed in transfected cells; host or cells: COS-7
T6 sequence (P50391 whole entry): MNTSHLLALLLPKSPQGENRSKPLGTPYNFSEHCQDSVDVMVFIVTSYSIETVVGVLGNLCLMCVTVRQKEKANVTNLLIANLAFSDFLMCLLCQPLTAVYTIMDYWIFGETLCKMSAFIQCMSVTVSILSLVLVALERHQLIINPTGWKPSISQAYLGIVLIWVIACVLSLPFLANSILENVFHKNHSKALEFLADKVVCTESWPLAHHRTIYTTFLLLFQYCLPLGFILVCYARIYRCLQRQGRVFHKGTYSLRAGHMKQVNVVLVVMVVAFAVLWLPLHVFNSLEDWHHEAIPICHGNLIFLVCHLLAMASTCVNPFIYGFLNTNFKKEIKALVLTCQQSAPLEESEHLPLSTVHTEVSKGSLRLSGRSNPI
Experimental: as §1, §2, §3

h D2 = molecular target: T7, h D2 (Homo sapiens, UniProt P14416); conditions: h D2 + chimera in COS-7; agonist DA, max 100 μM
T7 construct: expressed in transfected cells; host or cells: COS-7
T7 sequence (P14416 whole entry): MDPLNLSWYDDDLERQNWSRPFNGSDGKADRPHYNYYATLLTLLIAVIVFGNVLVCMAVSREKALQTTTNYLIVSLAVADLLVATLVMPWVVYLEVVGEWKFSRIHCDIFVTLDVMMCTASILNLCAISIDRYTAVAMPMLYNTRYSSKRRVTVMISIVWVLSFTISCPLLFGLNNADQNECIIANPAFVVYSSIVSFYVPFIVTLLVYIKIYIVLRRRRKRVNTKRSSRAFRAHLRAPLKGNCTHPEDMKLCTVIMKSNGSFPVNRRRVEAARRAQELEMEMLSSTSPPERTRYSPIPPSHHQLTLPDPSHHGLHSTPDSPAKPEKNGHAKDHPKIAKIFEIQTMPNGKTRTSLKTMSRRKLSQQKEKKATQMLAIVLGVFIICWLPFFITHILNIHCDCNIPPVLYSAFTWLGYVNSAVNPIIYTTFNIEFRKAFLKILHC
Experimental: as §1, §2, §3

Molecule | MAXIMAL SIGNAL (FLUORESCENCE UNITS) (h NPFF1) [fluorescence units] | MAXIMAL SIGNAL (FLUORESCENCE UNITS) (h 5HT4) [fluorescence units] | MAXIMAL SIGNAL (FLUORESCENCE UNITS) (h kappa) [fluorescence units] | MAXIMAL SIGNAL (FLUORESCENCE UNITS) (h 5HT6) [fluorescence units] | MAXIMAL SIGNAL (FLUORESCENCE UNITS) (h GALR1) [fluorescence units] | MAXIMAL SIGNAL (FLUORESCENCE UNITS) (h GALR3) [fluorescence units] | MAXIMAL SIGNAL (FLUORESCENCE UNITS) (h α2C adr) [fluorescence units] | MAXIMAL SIGNAL (FLUORESCENCE UNITS) (h 5HT7) [fluorescence units] | MAXIMAL SIGNAL (FLUORESCENCE UNITS) (h Y4) [fluorescence units] | MAXIMAL SIGNAL (FLUORESCENCE UNITS) (h D2) [fluorescence units]
B1 | 6593 | 1011 | 5975 | 1289 | 7648 | 1523 | 4143 | 166 | 9422 | 7615
B2 | 2966 | 1696 | 3472 | 2287 | 8489 | 2050 | 3874 | 129 | 7397 | 4305
